Test results published in article PMC5431922.

What was measured:
[1] = molecular target: 20.8-kDa tegumental-allergen-like protein from Clonorchis sinensis (CsTAL3), full-length (aa 1-184) (Clonorchis sinensis); assay: SAXS; 20 °C, 20 mM Tris-HCl pH 7.5, 100 mM NaCl, without or with 5 mM CaCl2; 1.9 to 5.2 mg/mL; molecular mass estimated against standard proteins
[2] = molecular target: 20.8-kDa tegumental-allergen-like protein from Clonorchis sinensis (CsTAL3), full-length (aa 1-184) (Clonorchis sinensis); assay: AUC; sedimentation velocity, 20 °C, 2.5 and 0.6 mg/mL, 50 x 10^3 rpm, interference optics, c(s) analysis; without CaCl2 and with 5 mM CaCl2

20.8-kDa tegumental-allergen-like protein from Clonorchis sinensis (CsTAL3), full-length (aa 1-184) (natural protein)
stoichiometry N [1]: 2 | stoichiometry N [2]: 2
